Four substances from paper doi:10.1101/2022.08.10.503460 can be followed below.

Assay [1] has as its target Pcdh15 EC1-11 PICA. Kind of assay: AFM force-clamp spectroscopy.
In a further assay the target is full-length Cdh23 EC1-27. Kind of assay: AFM force-clamp spectroscopy.
A further assay deals with Cdh23 EC1-5. Kind of assay: AFM force-clamp spectroscopy.
In assay [2] the target is Mouse Cdh23 EC1-2 (mouse) (UniProt Q99PF4). The experiment in a line: AFM force-clamp spectroscopy.
In assay [3] the target is Pcdh15 EC1-11 PICA.

The term koff denotes a measure of how fast the partners let go of each other. In general, stoichiometry N refers to the number of molecules, sites or subunits per partner or assembly.

Sequence of Mouse Cdh23 EC1-2 (mouse) (Q99PF4 24-228): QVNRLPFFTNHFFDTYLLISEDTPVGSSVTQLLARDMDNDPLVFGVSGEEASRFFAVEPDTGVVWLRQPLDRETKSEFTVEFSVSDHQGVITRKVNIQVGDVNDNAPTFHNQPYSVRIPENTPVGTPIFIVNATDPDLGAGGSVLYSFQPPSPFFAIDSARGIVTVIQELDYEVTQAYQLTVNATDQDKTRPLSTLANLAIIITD

In the assay with Pcdh15 EC1-11 PICA [1], Cdh23 EC1-27 Fc dimer (Fc fusion) had an intrinsic lifetime at no force (τ0) of 30 s.

In the case of “Mouse Pcdh15 EC1-2 (from UniProt Q99PJ1 27-259) (domain or fragment)”, the zero-force lifetime turned out to be 10 s in the assay with full-length Cdh23 EC1-27 and 1.5 s with Cdh23 EC1-5.

In turn, “Pcdh15 EC1-2 (R113G), Q99PJ1 27-259 (domain or fragment; other documents disagree on this pair)” returned a koff in assay [2] of 0.3 s⁻¹.

In turn, Pcdh15 EC1-11 PICA (domain or fragment) gave a stoichiometry N with Pcdh15 EC1-11 PICA [3] of 2.
